Measured values as given in patent US20190000964A1 (CREATIVE BIO PEPTIDES, published 2019).

B1: MIP-1β (ligand)
chain: APMGSDPPTACCFSYTARKLPRNFVVDYYETSSLCSQPAVVFQTKRSKQVCADPSESWVQEYVYDLELN
notes: also called MIP-β

Key:
[1] = molecular target: T1, human CCR5 receptor (hCCR5) (human, UniProt P51681 1-352); assay: inhibition of gp120/sCD4 complex binding to CCR5-expressing Cf2Th cells by competing peptide
T1 construct: whole, on cells; also called synCCR5; chemokine co-receptor CCR5

[2] = molecular target: T1, human CCR5 receptor (hCCR5); assay: inhibition of gp120CM235/sCD4 binding to Cf2Th/synR5 cells (FIG. 4B)
[3] = molecular target: T1, human CCR5 receptor (hCCR5); assay: inhibition of gp120BaL/sCD4 binding to Cf2Th/synR5 cells (FIG. 4A)
[4] = molecular target: T1, human CCR5 receptor (hCCR5); assay: inhibition of gp120CM235/sCD4 binding to GHOST CD4.CCR5 cells (FIG. 4C)

T1 sequence (P51681 whole entry): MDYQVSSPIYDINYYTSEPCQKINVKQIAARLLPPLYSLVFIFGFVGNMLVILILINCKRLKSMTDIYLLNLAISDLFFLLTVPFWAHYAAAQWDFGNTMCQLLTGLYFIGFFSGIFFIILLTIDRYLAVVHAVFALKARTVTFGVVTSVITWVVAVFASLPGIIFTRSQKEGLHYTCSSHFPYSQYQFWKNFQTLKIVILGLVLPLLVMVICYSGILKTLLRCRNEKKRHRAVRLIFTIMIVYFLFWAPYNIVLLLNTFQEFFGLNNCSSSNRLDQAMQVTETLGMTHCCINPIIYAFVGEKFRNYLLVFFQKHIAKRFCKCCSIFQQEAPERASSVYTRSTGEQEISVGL

Binder	EC50 [1] [nM]	IC50 [2] [nM]	IC50 [3] [nM]	IC50 [4] [nM]
INNYT	0.06	–	–	–
IDNYT	1	–	–	–
B1	–	1.8	1.5	0.43
